For the experiment, the target named is hIL-1βQ15G (human). As to the kind of experiment: ELISA; apparent Kd.
hIL-1βQ15G (human), sequence (chain, as listed by the source Q15G): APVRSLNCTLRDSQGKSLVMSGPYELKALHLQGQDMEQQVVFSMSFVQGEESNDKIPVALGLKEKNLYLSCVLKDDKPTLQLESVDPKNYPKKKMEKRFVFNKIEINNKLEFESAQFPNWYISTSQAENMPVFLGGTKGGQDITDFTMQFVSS

B1: Q15Kcr-G8-mFc (Fc fusion)
chain 1: EVQLQQSGAELVKPGASVKLSCTASDFNIKDTYIHWVKQRPEQGLEWIGRIDPADGNTKYDPKFQGKATITADTSSNTAYLQLSSLTSEDTAVYYCAIHYYGSFPYWGQGTLVTVSA
chain 2: DIVMTQAHKFMSTSVGDRVSITCQASQDVGTAVAWYQQKPGQSPKLLIYWASTRHTGVPDRFTGSGSGTDFTLTISNVQSEDLADYFCQQYSSYPYTFGGGTKLEIK
B1: the Kd was 27.3 nM.
